# According to publication PMC6799845, “On-chip structure-switching aptamer-modified magnetic nanobeads for the continuous monitoring of interferon-gamma ex vivo”:
# Tests used:
# PSA = PSA (UniProt P07288 25-261); assay: electrochemistry (on-chip bead-bound aptamer); 1 mg/mL; no significant signal (<15%); Buffer C: 100 mM Tris-HCl pH 7.4, 100 mM NaCl, 1 mM MgCl2, 5 mM KCl; room temperature (optimized conditions stated as pH 7.5, 100 mM salt); settings: protein: commercial; label: 5'-ferrocene; 3'-biotin (on streptavidin magnetic beads); hairpin
# IL-6 = IL-6 (UniProt P05231 30-212); assay: electrochemistry (on-chip bead-bound aptamer); 1 ng/mL; no significant signal (<15%); Buffer C: 100 mM Tris-HCl pH 7.4, 100 mM NaCl, 1 mM MgCl2, 5 mM KCl; room temperature (optimized conditions stated as pH 7.5, 100 mM salt); settings: protein: commercial; label: 5'-ferrocene; 3'-biotin (on streptavidin magnetic beads); hairpin
# TNF-α = TNF-α (UniProt P01375 77-233); assay: as above; settings: protein: commercial; chain copies: 3; label: 5'-ferrocene; 3'-biotin (on streptavidin magnetic beads); hairpin
# interferon gamma (IFN-γ) = interferon gamma (IFN-γ) (human, UniProt P01579 24-166); assay: electrochemistry (SWV, on-chip bead-bound aptamer); 1 mM Mg2+, 5 mM K+; from calibration-curve midpoint (100 pg/mL) (so in the source); Buffer C: 100 mM Tris-HCl pH 7.4, 100 mM NaCl, 1 mM MgCl2, 5 mM KCl; room temperature (optimized conditions stated as pH 7.5, 100 mM salt); settings: protein: recombinant; chain copies: 2; label: 5'-ferrocene; 3'-biotin (on streptavidin magnetic beads); hairpin
# Sequence of interferon gamma (IFN-γ) (P01579 24-166): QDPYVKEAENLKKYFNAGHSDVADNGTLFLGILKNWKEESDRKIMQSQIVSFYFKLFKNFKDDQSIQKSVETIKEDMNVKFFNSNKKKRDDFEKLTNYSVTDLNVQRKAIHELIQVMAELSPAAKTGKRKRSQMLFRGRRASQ
# Sequence of PSA (P07288 25-261): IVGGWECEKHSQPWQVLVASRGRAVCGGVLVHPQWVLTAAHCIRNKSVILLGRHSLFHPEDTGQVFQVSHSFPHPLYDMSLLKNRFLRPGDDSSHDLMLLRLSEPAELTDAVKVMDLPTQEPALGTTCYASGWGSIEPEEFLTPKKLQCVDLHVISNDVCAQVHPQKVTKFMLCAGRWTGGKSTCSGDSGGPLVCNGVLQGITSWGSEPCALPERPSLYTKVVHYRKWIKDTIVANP
# Sequence of TNF-α (P01375 77-233): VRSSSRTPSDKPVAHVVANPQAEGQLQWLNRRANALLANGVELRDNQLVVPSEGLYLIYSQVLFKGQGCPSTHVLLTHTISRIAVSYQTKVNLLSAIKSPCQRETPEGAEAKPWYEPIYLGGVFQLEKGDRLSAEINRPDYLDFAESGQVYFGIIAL
# Sequence of IL-6 (P05231 30-212): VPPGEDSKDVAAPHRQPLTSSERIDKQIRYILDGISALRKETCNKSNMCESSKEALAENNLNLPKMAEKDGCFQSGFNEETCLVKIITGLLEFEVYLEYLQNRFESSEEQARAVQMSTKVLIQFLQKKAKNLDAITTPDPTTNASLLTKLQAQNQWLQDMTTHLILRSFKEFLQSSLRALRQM
binder,measurement,setting,value
GGGGTTGGTTGTGTTGGGTGTTGTGTCCAACCCC (structured_DNA) [Fc-labeled IFN-γ hairpin aptamer (MB-aptamer)],binding result,PSA,no binding
same,binding result,IL-6,no binding
same,binding result,TNF-α,no binding
same,Ka,interferon gamma (IFN-γ),~2.1e+10 M⁻¹
